The target of the assay is SARS-CoV-2的野生型RBD蛋白(货号SPD-C82E8，ACRO Biosystems) (SARS-CoV-2, UniProt P0DTC2 319-537).

In patent publication CN116178530A (SHANGHAI JUNSHI BIOSCIENCES CO LTD; JUNMENG BIOSCIENCES CO …, dated 2023) one finds Kd, koff and kon data, which are given here for one molecule.

B1: JS5-10 (antibody, human IgG1, kappa, L234A L235A, V domains shown)
VH: EVQLLESGGGLVQPGGSLRLSCAASGFTFSSYAMSWVRQAPGKGLEWVSAIVGSGGSTYYADSVKGRFIISRDNSKNTLYLQMNSLRAEDTAVYYCAKSLIYGHYDILTGAYYFDYWGQGTLVTVSS
VL: DIQMTQSPSSVSASVGDRVTIPCRASQGIGNWLAWYQQKPGKAPKLLIYAASSLQSGVPSRFSGSGSGTDFTLTISSLQPEDFATYYCQQANSFPPFGQGTRLEIKR
Regarding B1, the Kd (in general, a measure of binding affinity in units of concentration) was found to be 2.04 nM; the koff (in general, the rate constant with which the complex falls apart) came to 0.000215 s⁻¹; the kon (in general, the rate constant with which the complex forms) is 106000 M⁻¹ s⁻¹.
